Assay results: US20260274985A1 (MYTHIC THERAPEUTICS, published 2026)

T1: TROP2 on TROP2-positive NCI-H1975 cells (human, UniProt P09758 27-323)
T1 sequence: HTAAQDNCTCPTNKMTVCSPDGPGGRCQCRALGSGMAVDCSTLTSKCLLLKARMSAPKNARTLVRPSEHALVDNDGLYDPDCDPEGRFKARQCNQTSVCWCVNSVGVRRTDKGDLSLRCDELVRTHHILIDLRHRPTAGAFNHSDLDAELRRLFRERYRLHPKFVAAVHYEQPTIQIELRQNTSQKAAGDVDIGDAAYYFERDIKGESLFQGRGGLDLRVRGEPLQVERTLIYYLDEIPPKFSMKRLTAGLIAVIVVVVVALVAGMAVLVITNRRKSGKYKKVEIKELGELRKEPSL

T2: Human TROP2 Protein, His Tag (Acro Biosystems) (human, UniProt P09758 27-274)
T2 construct: Bought protein; also called TACSTD2; not shown: His tag
T2 sequence: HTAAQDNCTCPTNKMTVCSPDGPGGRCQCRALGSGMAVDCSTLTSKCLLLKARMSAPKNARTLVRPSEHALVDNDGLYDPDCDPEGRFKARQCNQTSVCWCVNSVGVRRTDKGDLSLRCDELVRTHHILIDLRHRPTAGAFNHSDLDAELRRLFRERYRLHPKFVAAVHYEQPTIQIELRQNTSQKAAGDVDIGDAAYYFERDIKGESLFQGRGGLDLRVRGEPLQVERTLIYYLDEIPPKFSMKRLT

T3: Human TROP2 Protein, His Tag (human, UniProt P09758 27-274)
T3 construct: Bought protein; also called TACSTD2; not shown: His tag
T3 sequence (looked up): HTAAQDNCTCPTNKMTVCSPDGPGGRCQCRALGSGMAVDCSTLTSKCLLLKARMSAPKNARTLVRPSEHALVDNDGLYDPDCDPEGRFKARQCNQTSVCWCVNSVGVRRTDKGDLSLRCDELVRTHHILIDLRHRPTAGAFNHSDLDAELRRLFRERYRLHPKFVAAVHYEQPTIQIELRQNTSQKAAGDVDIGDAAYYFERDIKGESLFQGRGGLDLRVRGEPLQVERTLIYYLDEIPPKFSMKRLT


Tests used:
[1] = molecular target: T1, TROP2 on TROP2-positive NCI-H1975 cells; experiment: cell-based or functional assay
[2] = molecular target: T2, Human TROP2 Protein, His Tag (Acro …); experiment: BLI (Octet)
[3] = molecular target: T3, Human TROP2 Protein, His Tag; experiment: BLI (Octet)

Binder	binding result [2]	binding result [3]	other results
MYT11766 (antibody, human IgG1, V domains shown) VH: QVQLQESGPGLVKPSETLSLTCTVSGGSISSYGVHWIRQPPGKGLEWIGVIWTSGVTDYNSALMGRVTISVDTSKNQFSLKLSSVTAADTAVYYCARDGDYDRYTMDYWGQGTLVTVSS VL: DIVMTQSPDSLAVSLGERATINCRASKSVSTSGYSYMHWYQQKPGQPPKLLIYLASNLESGVPDRFSGSGSGTDFTLTISSLQAEDVAVYYCHHSRELPYTFGQGTKLEIK	–	–	cytotoxicity on TROP2-positive NCI-H1975 cells (antibody complexed to secondary antibody-MMAF, cell titer glow assay) [1]: ~30 % greater cytotoxicity compared to WT datopotamab
MYT12440 (antibody, human IgG1, V domains shown) VH: QVQLQESGPGLVKPSETLSLTCTVSGGSISSYGVHWIRQPPGKGLEWIGVIWTSGVTDYNSALMGRVTISVDTSKNQFSLKLSSVTAADTAVYYCARDGDYDRYTMDYWGQGTLVTVSS VL: DIVMTQSPDSLAVSLGERATINCRASKSVSTSGYSYMHWYQQKPGQPPKLLIYLASNLHSGVPDRFSGSGSGTDFTLTISSLQAEDVAVYYCHHSRELPYTFGQGTKLEIK	–	–	cytotoxicity on TROP2-positive NCI-H1975 cells (antibody complexed to secondary antibody-MMAF, cell titer glow assay) [1]: ~30 % greater cytotoxicity compared to WT datopotamab
MYT11770 (antibody, human IgG1, V domains shown) VH: QVQLQESGPGLVKPSETLSLTCTVSGGSISSYGVHWIRQPPGKGLEWIGVIWTSGVTDYNSALMGRVTISVDTSKNQFSLKLSSVTAADTAVYYCARDGDYDRYTMDYWGQGTLVTVSS VL: DIVMTQSPDSLAVSLGERATINCRASKSVSTSGYSYMHWYQQKPGQPPKLLIYLASNLESGVPDRFSGSGSGTDFTLTISSLQAEDVAVYYCQHSRHLPYTFGQGTKLEIK	–	–	cytotoxicity on TROP2-positive NCI-H1975 cells (antibody complexed to secondary antibody-MMAF, cell titer glow assay) [1]: ~30 % greater cytotoxicity compared to WT datopotamab
MYT12416 (hu7E6SVG variant, HCV substitutions at 34, 102) (antibody, V domains shown) VH: QVQLQESGPGLVKPSETLSLTCTVSGGSISSYGHHWIRQPPGKGLEWIGVIWTSGVTDYNSALMGRVTISVDTSKNQFSLKLSSVTAADTAVYYCARDGDYHRYTMDYWGQGTLVTVSS VL: DIVMTQSPDSLAVSLGERATINCRASKSVSTSGYSYMHWYQQKPGQPPKLLIYLASNLESGVPDRFSGSGSGTDFTLTISSLQAEDVAVYYCQHSRELPYTFGQGTKLEIK	binds	–	–
MYT12425 (hu7E6SVG variant, HCV substitutions at 56, 106) (antibody, V domains shown) VH: QVQLQESGPGLVKPSETLSLTCTVSGGSISSYGVHWIRQPPGKGLEWIGVIWTSGHTDYNSALMGRVTISVDTSKNQFSLKLSSVTAADTAVYYCARDGDYDRYTHDYWGQGTLVTVSS VL: DIVMTQSPDSLAVSLGERATINCRASKSVSTSGYSYMHWYQQKPGQPPKLLIYLASNLESGVPDRFSGSGSGTDFTLTISSLQAEDVAVYYCQHSRELPYTFGQGTKLEIK	binds	–	–
MYT12424 (hu7E6SVG variant, HCV substitutions at 56, 103) (antibody, V domains shown) VH: QVQLQESGPGLVKPSETLSLTCTVSGGSISSYGVHWIRQPPGKGLEWIGVIWTSGHTDYNSALMGRVTISVDTSKNQFSLKLSSVTAADTAVYYCARDGDYDHYTMDYWGQGTLVTVSS VL: DIVMTQSPDSLAVSLGERATINCRASKSVSTSGYSYMHWYQQKPGQPPKLLIYLASNLESGVPDRFSGSGSGTDFTLTISSLQAEDVAVYYCQHSRELPYTFGQGTKLEIK	binds	–	–
MYT12421 (hu7E6SVG variant, HCV substitutions at 51, 103) (antibody, V domains shown) VH: QVQLQESGPGLVKPSETLSLTCTVSGGSISSYGVHWIRQPPGKGLEWIGVHWTSGVTDYNSALMGRVTISVDTSKNQFSLKLSSVTAADTAVYYCARDGDYDHYTMDYWGQGTLVTVSS VL: DIVMTQSPDSLAVSLGERATINCRASKSVSTSGYSYMHWYQQKPGQPPKLLIYLASNLESGVPDRFSGSGSGTDFTLTISSLQAEDVAVYYCQHSRELPYTFGQGTKLEIK	binds	–	–
MYT12417 (hu7E6SVG variant, HCV substitutions at 34, 103) (antibody, V domains shown) VH: QVQLQESGPGLVKPSETLSLTCTVSGGSISSYGHHWIRQPPGKGLEWIGVIWTSGVTDYNSALMGRVTISVDTSKNQFSLKLSSVTAADTAVYYCARDGDYDHYTMDYWGQGTLVTVSS VL: DIVMTQSPDSLAVSLGERATINCRASKSVSTSGYSYMHWYQQKPGQPPKLLIYLASNLESGVPDRFSGSGSGTDFTLTISSLQAEDVAVYYCQHSRELPYTFGQGTKLEIK	binds	–	–
MYT12420 (hu7E6SVG variant, HCV substitutions at 51, 102) (antibody, V domains shown) VH: QVQLQESGPGLVKPSETLSLTCTVSGGSISSYGVHWIRQPPGKGLEWIGVHWTSGVTDYNSALMGRVTISVDTSKNQFSLKLSSVTAADTAVYYCARDGDYHRYTMDYWGQGTLVTVSS VL: DIVMTQSPDSLAVSLGERATINCRASKSVSTSGYSYMHWYQQKPGQPPKLLIYLASNLESGVPDRFSGSGSGTDFTLTISSLQAEDVAVYYCQHSRELPYTFGQGTKLEIK	binds	–	–
MYT12375 (antibody, human IgG1, V domains shown) VH: QVQLQQSGSELKKPGASVKVSCKASGYTFTNYGMNWVKQAPGQGLKWMGWINTYTGEPTYTDDFKGRFAFSLDTSVSTAYLQISSLKADDTAVYFCARGGFGSSYWYFDVWGQGSLVTVSS VL: DIQLTQSPSSLSASVGDRVSITCKASQDVSIAVAWYQQKPGKAPKLLIYSHSHRYTGVPDRFSGSGSGTDFTLTISSLQPEDFAVYYCQQHYHTPLTFGAGTKVEIK	–	–	cytotoxicity on TROP2-positive NCI-H1975 cells (antibody complexed to secondary antibody-MMAF, cell titer glow assay) [1]: ~27 % greater cytotoxicity compared to WT datopotamab
MYT11682 (antibody, human IgG1, V domains shown) VH: QVQLVQSGAEVKKPGASVKVSCKASGYTFTTAGMQWVRQAPGQGLEWMGWINTHSGVPKYAEDFKGRVTISADTSTSTAYLQLSSLKSEDTAVYYCARSGFGSSYWYFDVWGQGTLVTVSS VL: DIQMTQSPSSLSASVGDRVTITCKASQDHSTAVAWYQQKPGKAPKLLIYSASYRYTGVPSRFSGSGSGTDFTLTISSLQPEDFAVYYCQQHYITPLTFGQGTKLEIK	–	–	cytotoxicity on TROP2-positive NCI-H1975 cells (antibody complexed to secondary antibody-MMAF, cell titer glow assay) [1]: ~20 % greater cytotoxicity compared to WT datopotamab
MYT11663 (antibody, V domains shown, IgG from supernatant; His at HCV position 97; also called datopotamab variant H3 01) VH: QVQLVQSGAEVKKPGASVKVSCKASGYTFTTAGMQWVRQAPGQGLEWMGWINTHSGVPKYAEDFKGRVTISADTSTSTAYLQLSSLKSEDTAVYYCHRSGFGSSYWYFDVWGQGTLVTVSS VL: DIQMTQSPSSLSASVGDRVTITCKASQDVSTAVAWYQQKPGKAPKLLIYSASYRYTGVPSRFSGSGSGTDFTLTISSLQPEDFAVYYCQQHYITPLTFGQGTKLEIK	–	no binding (tested: 50 nM)	–
MYT11672 (antibody, V domains shown, IgG from supernatant; also called datopotamab variant H3 10) VH: QVQLVQSGAEVKKPGASVKVSCKASGYTFTTAGMQWVRQAPGQGLEWMGWINTHSGVPKYAEDFKGRVTISADTSTSTAYLQLSSLKSEDTAVYYCARSGFGSSYHYFDVWGQGTLVTVSS VL: DIQMTQSPSSLSASVGDRVTITCKASQDVSTAVAWYQQKPGKAPKLLIYSASYRYTGVPSRFSGSGSGTDFTLTISSLQPEDFAVYYCQQHYITPLTFGQGTKLEIK	–	no binding (tested: 50 nM)	–
MYT11665 (antibody, V domains shown, IgG from supernatant; His at HCV position 99; also called datopotamab variant H3 03) VH: QVQLVQSGAEVKKPGASVKVSCKASGYTFTTAGMQWVRQAPGQGLEWMGWINTHSGVPKYAEDFKGRVTISADTSTSTAYLQLSSLKSEDTAVYYCARHGFGSSYWYFDVWGQGTLVTVSS VL: DIQMTQSPSSLSASVGDRVTITCKASQDVSTAVAWYQQKPGKAPKLLIYSASYRYTGVPSRFSGSGSGTDFTLTISSLQPEDFAVYYCQQHYITPLTFGQGTKLEIK	–	no binding (tested: 50 nM)	–
MYT11643 (antibody, V domains shown, IgG from supernatant; His at HCV position 33; also called datopotamab variant H1 08) VH: QVQLVQSGAEVKKPGASVKVSCKASGYTFTTAHMQWVRQAPGQGLEWMGWINTHSGVPKYAEDFKGRVTISADTSTSTAYLQLSSLKSEDTAVYYCARSGFGSSYWYFDVWGQGTLVTVSS VL: DIQMTQSPSSLSASVGDRVTITCKASQDVSTAVAWYQQKPGKAPKLLIYSASYRYTGVPSRFSGSGSGTDFTLTISSLQPEDFAVYYCQQHYITPLTFGQGTKLEIK	–	no binding (tested: 50 nM)	–
MYT11666 (antibody, V domains shown, IgG from supernatant; His at HCV position 100; also called datopotamab variant H3 04) VH: QVQLVQSGAEVKKPGASVKVSCKASGYTFTTAGMQWVRQAPGQGLEWMGWINTHSGVPKYAEDFKGRVTISADTSTSTAYLQLSSLKSEDTAVYYCARSHFGSSYWYFDVWGQGTLVTVSS VL: DIQMTQSPSSLSASVGDRVTITCKASQDVSTAVAWYQQKPGKAPKLLIYSASYRYTGVPSRFSGSGSGTDFTLTISSLQPEDFAVYYCQQHYITPLTFGQGTKLEIK	–	no binding (tested: 50 nM)	–
MYT11668 (antibody, V domains shown, IgG from supernatant; also called datopotamab variant H3 06) VH: QVQLVQSGAEVKKPGASVKVSCKASGYTFTTAGMQWVRQAPGQGLEWMGWINTHSGVPKYAEDFKGRVTISADTSTSTAYLQLSSLKSEDTAVYYCARSGFHSSYWYFDVWGQGTLVTVSS VL: DIQMTQSPSSLSASVGDRVTITCKASQDVSTAVAWYQQKPGKAPKLLIYSASYRYTGVPSRFSGSGSGTDFTLTISSLQPEDFAVYYCQQHYITPLTFGQGTKLEIK	–	no binding (tested: 50 nM)	–
MYT11669 (antibody, V domains shown, IgG from supernatant; also called datopotamab variant H3 07) VH: QVQLVQSGAEVKKPGASVKVSCKASGYTFTTAGMQWVRQAPGQGLEWMGWINTHSGVPKYAEDFKGRVTISADTSTSTAYLQLSSLKSEDTAVYYCARSGFGHSYWYFDVWGQGTLVTVSS VL: DIQMTQSPSSLSASVGDRVTITCKASQDVSTAVAWYQQKPGKAPKLLIYSASYRYTGVPSRFSGSGSGTDFTLTISSLQPEDFAVYYCQQHYITPLTFGQGTKLEIK	–	no binding (tested: 50 nM)	–
